Assay in all cases: cell-based or functional assay
The target in assay [1] is T1, human c-Met (human, UniProt P08581 25-1390).
Assay [2] addresses T1, human c-Met. The source holds these as a separate data set.
For assay [3], the target named is T1, human c-Met. This is another data set of the same source.
The target in assay [4] is T1, human c-Met. The source holds these as a separate data set.

T1 sequence (P08581 25-1390): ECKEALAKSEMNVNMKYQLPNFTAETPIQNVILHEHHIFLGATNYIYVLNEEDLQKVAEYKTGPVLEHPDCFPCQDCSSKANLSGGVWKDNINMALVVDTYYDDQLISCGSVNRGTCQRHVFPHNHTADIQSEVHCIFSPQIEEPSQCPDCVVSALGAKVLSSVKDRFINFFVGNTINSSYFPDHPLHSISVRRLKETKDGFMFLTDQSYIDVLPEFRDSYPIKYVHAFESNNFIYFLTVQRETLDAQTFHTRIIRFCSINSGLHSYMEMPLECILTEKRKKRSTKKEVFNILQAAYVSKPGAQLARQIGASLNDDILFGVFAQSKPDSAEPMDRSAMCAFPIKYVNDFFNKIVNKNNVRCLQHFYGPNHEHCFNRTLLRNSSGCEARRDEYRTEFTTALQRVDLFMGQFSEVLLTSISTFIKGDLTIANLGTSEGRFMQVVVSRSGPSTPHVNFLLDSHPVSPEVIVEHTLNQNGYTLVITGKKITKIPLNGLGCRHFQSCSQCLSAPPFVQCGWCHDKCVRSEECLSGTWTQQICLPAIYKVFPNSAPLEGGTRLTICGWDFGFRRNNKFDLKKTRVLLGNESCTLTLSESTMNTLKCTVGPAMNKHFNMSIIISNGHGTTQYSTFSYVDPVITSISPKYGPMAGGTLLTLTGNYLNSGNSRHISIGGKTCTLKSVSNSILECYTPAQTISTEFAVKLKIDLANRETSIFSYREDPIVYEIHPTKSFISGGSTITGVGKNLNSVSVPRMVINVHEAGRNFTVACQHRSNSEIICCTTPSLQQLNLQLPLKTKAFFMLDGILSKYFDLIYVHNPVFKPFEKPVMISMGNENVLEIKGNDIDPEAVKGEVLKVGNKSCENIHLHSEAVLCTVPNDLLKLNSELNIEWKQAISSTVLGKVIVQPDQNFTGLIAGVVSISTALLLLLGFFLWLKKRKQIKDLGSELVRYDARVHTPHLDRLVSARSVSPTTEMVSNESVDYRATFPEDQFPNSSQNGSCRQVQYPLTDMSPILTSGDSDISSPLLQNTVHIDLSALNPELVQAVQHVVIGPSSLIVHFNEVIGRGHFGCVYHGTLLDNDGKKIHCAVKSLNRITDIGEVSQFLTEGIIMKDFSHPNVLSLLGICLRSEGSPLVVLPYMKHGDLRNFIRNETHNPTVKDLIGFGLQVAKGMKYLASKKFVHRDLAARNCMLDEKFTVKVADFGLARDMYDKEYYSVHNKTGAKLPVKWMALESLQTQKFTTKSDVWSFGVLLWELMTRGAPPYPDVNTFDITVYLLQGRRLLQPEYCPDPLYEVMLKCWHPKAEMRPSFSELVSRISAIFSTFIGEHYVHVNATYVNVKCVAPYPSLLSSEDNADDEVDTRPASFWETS

B1: D11-8B8 (antibody, human IgG2, kappa, V domains shown)
VH: QVQLVQSGAEVKKPGSSVKVSCKASGYTFTSRYIHWVRQAPGQGLEWMGWIYPVTGDTYYIEKFKGRVTITADKSTSTAYMELSSLRSEDTAVYYCARGYGAFFYWGQGTLVTVSS
VL: EIVLTQSPGTLSLSPGERATLSCSVSSSISSTNLHWYQQKPGQAPRLLIYGTSYLASGIPDRFSGSGSGTDFTLTISRLEPEDFAVYYCQQWSSYPYSFGQGTKLEIKR
Take B1: in the assay with human c-Met [1], the “Staurosporine-Induced Apoptosis in Caki-1 Cells, Average A450 nm, antibody dose 3 ng/mL” value came out at 1.02 A450 nm; the “Staurosporine-Induced Apoptosis in Caki-1 Cells, Average A450 nm, antibody dose 30 ng/mL” value was 0.91 A450 nm; the “Staurosporine-Induced Apoptosis in Caki-1 Cells, Average A450 nm, antibody dose 300 ng/mL” value came out at 0.81 A450 nm; the “Staurosporine-Induced Apoptosis in Caki-1 Cells, Average A450 nm, antibody dose 3000 ng/mL” value amounted to 0.91 A450 nm. The “Staurosporine-Induced Apoptosis in Caki-1 Cells, Average A450 nm, antibody dose 30000 ng/mL” value in the assay with human c-Met [1] was 0.87 A450 nm. In the assay with human c-Met [2], the “3H-Thymidine Incorporation in Caki-1 Cells in the Absence of HGF (AVG CPM), antibody dose 0.1 ng/mL” value was found to be 15300 CPM; the “3H-Thymidine Incorporation in Caki-1 Cells in the Absence of HGF (AVG CPM), antibody dose 0.4 ng/mL” value was determined as 14400 CPM; the “3H-Thymidine Incorporation in Caki-1 Cells in the Absence of HGF (AVG CPM), antibody dose 2.6 ng/mL” value came out at 14100 CPM; the “3H-Thymidine Incorporation in Caki-1 Cells in the Absence of HGF (AVG CPM), antibody dose 15.4 ng/mL” value is 13500 CPM. For the same molecule, in the assay with human c-Met [2], the “3H-Thymidine Incorporation in Caki-1 Cells in the Absence of HGF (AVG CPM), antibody dose 92.6 ng/mL” value stood at 13700 CPM; the “3H-Thymidine Incorporation in Caki-1 Cells in the Absence of HGF (AVG CPM), antibody dose 555.6 ng/mL” value stood at 14000 CPM; the “3H-Thymidine Incorporation in Caki-1 Cells in the Absence of HGF (AVG CPM), antibody dose 3333.3 ng/mL” value worked out at 15700 CPM; the “3H-Thymidine Incorporation in Caki-1 Cells in the Absence of HGF (AVG CPM), antibody dose 20000.0 ng/mL” value is 15900 CPM. In the assay with human c-Met [3], the “3H-Thymidine Incorporation in Primary Human Hepatocytes in the Absence of HGF (average), dose 0.0032 ug/mL” value was 611; the “3H-Thymidine Incorporation in Primary Human Hepatocytes in the Absence of HGF (average), dose 0.016 ug/mL” value was found to be 715; the “3H-Thymidine Incorporation in Primary Human Hepatocytes in the Absence of HGF (average), dose 0.08 ug/mL” value stood at 1120; the “3H-Thymidine Incorporation in Primary Human Hepatocytes in the Absence of HGF (average), dose 0.4 ug/mL” value is 1230. In addition, in the assay with human c-Met [3], the “3H-Thymidine Incorporation in Primary Human Hepatocytes in the Absence of HGF (average), dose 2 ug/mL” value was determined as 1430 and the “3H-Thymidine Incorporation in Primary Human Hepatocytes in the Absence of HGF (average), dose 10 ug/mL” value is 1700. Besides, the “Percent of DU145 Cells in Colonies (scatter assay), antibody 20 ug/mL” value in the assay with human c-Met [4] turned out to be 25.6%.

For the origin of these results see patent US20100129369A1 (Eli Lilly, published 2010).
